The target in assay [1] is HLA-B*15:01. Briefly: IEDB peptide-MHC binding, purified MHC/competitive/fluorescence; filed as Kd, often an IC50 or EC50 that approximates it; ≥ and ≤ were set here for values at or beyond the usual limits of such assays.
In assay [2] the target is HLA-A*03:01. Described as above.
The target in assay [3] is HLA-B*58:01. Briefly: IEDB peptide-MHC binding, purified MHC/direct/fluorescence; filed as Kd, often an IC50 or EC50 that approximates it; ≥ and ≤ were set here for values at or beyond the usual limits of such assays.
The target in assay [4] is HLA-B*15:17. The description is as above.
The target of assay [5] is HLA-B*57:01. Described as above.
The target in assay [6] is HLA-A*68:02. The description is as above.
Assay [7] concerns the target HLA-A*24:03. The description is as above. The settings on record: source organism: Salmonella enterica subsp. enterica serovar Typhimurium str. LT2.
For assay [8], the target named is HLA-A*02:12. The description is as above.
For assay [9], the target named is HLA-A*02:16. Described as above. The settings on record: source organism: Salmonella enterica subsp. enterica serovar Typhimurium str. LT2.
Assay [10] concerns the target HLA-A*29:02. Described as above.
Assay [11] addresses HLA-A*02:19. Described as above.
The target in assay [12] is HLA-A*03:01. The description is as above.
Assay [13] addresses HLA-A*02:01. The description is as above.
In assay [14] the target is HLA-B*27:03. Briefly: IEDB peptide-MHC binding, purified MHC/competitive/fluorescence; filed as Kd, often an IC50 or EC50 that approximates it; ≥ and ≤ were set here for values at or beyond the usual limits of such assays.
The target of assay [15] is HLA-B*46:01. The description is as above.
Assay [16] deals with HLA-B*57:01. The description is as above.
Assay [17] has as its target HLA-B*51:01. Described as above.
Assay [18] concerns the target HLA-A*69:01. The assay is described as above.
The target of assay [19] is HLA-B*39:01. The assay is described as above.
In assay [20] the target is HLA-A*26:01. The assay is described as above.
Assay [21] has as its target HLA-B*18:01. The assay is described as above.
For assay [22], the target named is HLA-B*15:17. The description is as above.
The target in assay [23] is HLA-B*46:01. Briefly: IEDB peptide-MHC binding, purified MHC/direct/fluorescence; filed as Kd, often an IC50 or EC50 that approximates it; ≥ and ≤ were set here for values at or beyond the usual limits of such assays. The settings on record: source organism: Reston ebolavirus - Reston.
In assay [24] the target is HLA-A*31:01. The assay is described as above. The settings on record: source organism: Reston ebolavirus - Reston.
Assay [25] has as its target HLA-B*27:05. Described as above. The settings on record: source organism: Reston ebolavirus - Reston.
Assay [26] deals with HLA-A*11:01. Described as above.
The target of assay [27] is HLA-B*48:01. The assay is described as above. The settings on record: source organism: Reston ebolavirus - Reston.
Assay [28] deals with HLA-A*01:01. Described as above. The settings on record: source organism: Reston ebolavirus - Reston.
In assay [29] the target is HLA-B*44:02. The description is as above. The settings on record: source organism: Reston ebolavirus - Reston.
Assay [30] deals with HLA-B*15:01. Described as above. The settings on record: source organism: Reston ebolavirus - Reston.
The target in assay [31] is HLA-B*08:01. Described as above. The settings on record: source organism: Reston ebolavirus - Reston.
Assay [32] concerns the target HLA-B*18:01. The description is as above. The settings on record: source organism: Reston ebolavirus - Reston.
The target in assay [33] is HLA-A*02:01. Briefly: IEDB peptide-MHC binding, purified MHC/competitive/fluorescence; filed as Kd, often an IC50 or EC50 that approximates it; ≥ and ≤ were set here for values at or beyond the usual limits of such assays.
Assay [34] addresses HLA-A*02:03. Briefly: IEDB peptide-MHC binding, purified MHC/direct/fluorescence; filed as Kd, often an IC50 or EC50 that approximates it; ≥ and ≤ were set here for values at or beyond the usual limits of such assays. The settings on record: source organism: Entamoeba histolytica HM-1:IMSS.
In assay [35] the target is HLA-A*02:11. The assay is described as above.
Assay [36] deals with HLA-A*69:01. The description is as above. The settings on record: source organism: Amur virus.
Assay [37] concerns the target HLA-A*68:02. Briefly: IEDB peptide-MHC binding, purified MHC/competitive/fluorescence; filed as Kd, often an IC50 or EC50 that approximates it; ≥ and ≤ were set here for values at or beyond the usual limits of such assays. The settings on record: source organism: Salmonella enterica subsp. enterica serovar Typhi.
[38] abbreviates: source organism: Salmonella enterica subsp. enterica serovar Typhi.
The mark [39] stands for this setting: source organism: Rickettsia sibirica.
Where [40] appears, read: source organism: Salmonella enterica subsp. enterica serovar Typhimurium str. LT2.
Setting [41] is: source organism: West Nile virus.
[42] abbreviates: source organism: Convict Creek 107 virus.
Where [43] appears, read: source organism: Orthohantavirus sinnombreense.
The mark [44] stands for this setting: source organism: Reston ebolavirus - Reston.
The mark [45] stands for this setting: source organism: Reston ebolavirus - Reston (1989).
Setting [46] is: source organism: Entamoeba histolytica HM-1:IMSS.
The mark [47] stands for this setting: source organism: Entamoeba dispar SAW760.

Broadly, the Kd is the free concentration of one partner at which half of the binding sites on the other are occupied at equilibrium, for simple one-to-one binding. A lower Kd goes with tighter binding.

On to AMAAAGMMY, for which the Kd was 0.332 µM in [1] (setting [38]) and 0.698 µM in assay [2] (setting [38]).
As for ASWMALGVY, the values for the Kd in [3] (setting [39]), in assay [4] (setting [39]) and in assay [5] (source organism: Rickettsia sibirica 246) were 1.32 µM, 0.0239 µM and not below 20 µM, respectively.
In turn, CMKTFFGWK returned a dissociation constant Kd in assay [2] (source organism: Influenza A virus (A/Hong Kong/1774/99(H3N2))) of 0.0354 µM.
As to FTGEYLLRL, the Kd in [6] (setting [40]) was not below 20 µM; in assay [7], not below 20 µM; in assay [8] (setting [40]), 1.04 µM; in assay [9] it was not below 20 µM; in [10] (setting [40]), not below 20 µM; in [11] (setting [40]) it was not below 20 µM. In addition, the Kd was not below 20 µM in assay [12] (setting [40]); 0.229 µM in assay [13] (source organism: Salmonella enterica subsp. enterica serovar Typhimurium); not below 20 µM in assay [14] (source organism: Homo sapiens); not below 20 µM in assay [15] (source organism: Homo sapiens); not below 20 µM in assay [16] (source organism: Homo sapiens); not below 20 µM in assay [17] (source organism: Homo sapiens). Moreover, the dissociation constant (Kd) in assay [18] (source organism: Homo sapiens), in [1] (source organism: Homo sapiens), in [19] (source organism: Homo sapiens), in [20] (source organism: Homo sapiens) and in assay [21] (source organism: Homo sapiens) was not below 20 µM each time.
Consider GSRAIWFMW, for which the Kd in assay [4] (setting [41]) was determined as 0.063 µM; in assay [5] (setting [41]) it was 0.038 µM.
Take KLHRYIDSM: the Kd in assay [11] (setting [42]) is not below 20 µM; in assay [12] (setting [42]), not below 20 µM; in [13] (source organism: Orthohantavirus andesense) it was 0.0342 µM; in assay [14] (setting [43]), not below 20 µM; in assay [15] (setting [43]) it was not below 20 µM; in assay [22] (setting [43]), not below 20 µM. Besides, the Kd in assay [16] (setting [43]), in assay [17] (setting [43]), in assay [19] (setting [43]), in [20] (setting [43]) and in assay [21] (setting [43]) was not below 20 µM in each case.
In [4] (source organism: Yellow fever virus 1899/81), KTWGKNLVF displayed a Kd of 0.0017 µM.
For QLSLRMLSL, the Kd in [23], in assay [3] (setting [44]), in assay [5] (setting [44]), in assay [24], in assay [10] (setting [44]) and in assay [25] was not below 20 µM in each case. Moreover, the Kd in [26] (setting [44]) is not below 20 µM; in assay [27], not below 20 µM; in assay [28], not below 20 µM; in assay [29], not below 20 µM; in assay [30] it was not below 20 µM; in assay [31], 0.859 µM. Also, the Kd in assay [12] (setting [44]), in assay [32], in assay [14] (setting [45]), in [18] (setting [45]), in assay [19] (setting [45]) and in assay [20] (setting [45]) was not below 20 µM in each case. The Kd in assay [33] (setting [45]) was not below 20 µM.
In [2] (source organism: Bacillus anthracis str. A0488), RMLHLSQMH came in with an equilibrium dissociation constant (Kd) of 0.0258 µM.
Consider STYQFSLMQ, for which the Kd in assay [6] (setting [46]), in [34], in assay [8] (setting [46]), in [35] (setting [46]), in assay [26] (setting [46]) and in [11] (setting [46]) was not below 20 µM throughout. Further, the equilibrium dissociation constant (Kd) in [12] (setting [46]), in assay [14] (setting [47]), in assay [15] (setting [47]), in assay [22] (setting [47]), in [16] (setting [47]) and in assay [17] (setting [47]) was not below 20 µM throughout. Also, the Kd in assay [18] (setting [47]), in assay [19] (setting [47]), in assay [20] (setting [47]), in assay [33] (setting [47]) and in assay [21] (setting [47]) was not below 20 µM throughout.
Regarding TLTRGQNTV, the dissociation constant Kd was 0.058 µM in assay [8] (source organism: Amur virus); not below 20 µM in assay [35] (source organism: Amur virus); not below 20 µM in assay [36]; 0.137 µM in assay [11] (source organism: Amur virus); 0.0396 µM in assay [13] (source organism: Amur virus).
Regarding WVVDQNGRV, in assay [37], the Kd was found to be 0.0179 µM.
